Reference: article PMC5697745

Molecular target: FAM-AIP-I, fluorescein-tagged AIP-I (Staphylococcus aureus (group I))
Test: fluorescence polarisation

For “AgrC-I^R238H, constitutively active full-length AgrC-I mutant, in nanodiscs (receptor)”, the Kd was 51 nM.
